In PMC5146914:

Assay: circular dichroism
Conditions: 10 mM PBS; pH 7.4; 25 °C; 50-800 uM

| SMILES | helicity [rel %] |
| --- | --- |
| CC[C@H](C)[C@@H]1NC(=O)[C@H](C)NC(=O)[C@@H](NC(C)=O)CCCCC[S@@](=O)C[C@@H](C(N)=O)NC(=O)[C@H](C)NC1=O | 86 |
| CC(=O)N[C@H]1CCCCC[S@@](=O)C[C@@H](C(N)=O)NC(=O)[C@H](C)NC(=O)[C@H](Cc2ccccc2)NC(=O)[C@H](C)NC1=O | 92 |
| CC(=O)N[C@H]1CCCCC[S@@](=O)C[C@@H](C(N)=O)NC(=O)[C@H](CCC(=O)O)NC(=O)[C@H](C)NC(=O)[C@H](CCCCN)NC1=O | 31 |
| CC(=O)N[C@H]1CCCCC[S@@](=O)C[C@@H](C(N)=O)NC(=O)[C@H](C)NC(=O)[C@H](C)NC(=O)[C@H](C)NC1=O | 100 |
| CC(=O)N[C@H]1CCCCC[S@@](=O)C[C@@H](C(N)=O)NC(=O)[C@H](C)NC(=O)[C@H](CO)NC(=O)[C@H](C)NC1=O | 65 |
| CC(=O)N[C@H]1CCCCC[S@@](=O)C[C@@H](C(N)=O)NC(=O)[C@H](C)NC(=O)[C@H](CCC(N)=O)NC(=O)[C@H](C)NC1=O | 93 |
| CC(=O)N[C@H]1CCCCC[S@@](=O)C[C@@H](C(N)=O)NC(=O)[C@H](C)NC(=O)CNC(=O)[C@H](C)NC1=O | 54 |
